The text below walks through data of patent publication US12269859B2, “Synthetic immune receptors and methods of use thereof” (Angeles Therapeutics, Inc., priority 2016, dated 2025).

The experiment relates to target antigen-expressing cell line. Briefly: Jurkat NFAT-GFP assay, coculture with target cell lines expressing the respective target antigen (summary Table 10A). Type of experiment: cell-based, human. On the set-up: key: The signs +/−, +, 2+ etc. after the name of the cell lines indicate the relative degree of positivity on the Jurkat-NFAT-GFP assay as measured by the % GFP positive cells; +: relative degree of positivity on the Jurkat-NFAT-GFP assay as measured by the % GFP positive cells; 2+: relative degree of positivity on the Jurkat-NFAT-GFP assay as measured by the % GFP positive cells. The settings on record: relative % GFP positive cells; for NFAT-GFP ASSAY Positive Cell lines: NALM6: SIR-expressing Jurkat-NFAT-GFP cells cocultured with NALM6; for NFAT-GFP ASSAY Positive Cell lines: RAJI: SIR-expressing Jurkat-NFAT-GFP cells cocultured with RAJI. In a few lines:
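Positivity is scored when SIR-expressing reporter Jurkat cells show more GFP-positive cells than parental controls after coculture with the antigen-bearing line. Effector-to-target ratio is about 1:2, coculture lasts roughly 4–18 hours, and GFP is quantified by FACS.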

B1: 030217-G04 (protein)
chain: MALPVTALLLPLALLLHAARPDEIVLTQSPATLSLSPGERATLSCSASSSVSYMHWYQQKPGQAPRLLIYDTSKLASGIPARFSGSGSGTDFTLTISSLEPEDVAVYYCFQGSVYPFTFGQGTKLEIKRGGGGSGGGGSGGGGSQVQLQESGPGLVKPSQTLSLTCTVSGGSISTSGMGVGWIRQHPGKGLEWIGHIWWDDDKRYNPALKSRVTISVDTSKNQFSLKLSSVTAADTAVYYCARMELWSYYFDYWGQGTLVTVSSLEGKPIPNPLLGLDSTGSGEDLKNVFPPEVAVFEPSKAEIAHTQKATLVCLATGFYPDHVELSWWVNGKEVHSGVCTDPQPLKEQPALNDSRYCLSSRLRVSATFWQNPRNHFRCQVQFYGLSENDEWTQDRAKPVTQIVSAEAWGRADCGITSASYHQGVLSATILYEILLGKATLYAVLVSALVLMAMVKRKDSRGRAKRSGSGATNFSLLKQAGDVEENPGPTSMALPVTALLLPLALLLHAARPDDIVMTQSPDSLTVSLGERTTINCKSSQSVLDSSKNKNSLAWYQQKPGQPPKLLLSWASTRESGIPDRFSGSGSGTDFTLTIDSLQPEDSATYYCQQSAHFPITFGQGTRLEIKGGGGSGGGGSGGGGSQVQLVQSGAEVKKPGASVKVSCKASGYTFTNYGMNWVKQAPGQGLKWMGWINTYTGEPTYADDFKGRVTMTSDTSTSTAYLELHNLRSDDTAVYYCARWSWSDGYYVYFDYWGQGTTVTVSSTREQKLISEEDGSGIQNPDPAVYQLRDSKSSDKSVCLFTDFDSQTNVSQSKDSDVYITDKCVLDMRSMDFKSNSAVAWSNKSDFACANAFNNSIIPEDTFFPSSDVPCDVKLVEKSFETDTNLNFQNLSVIGFRILLLKVAGFNLLMTLRLWSSRAKRSGSGVKQTLNFDLLKLAGDVESNPGPSRGHMTEYKPTVRLATRDDVPRAVRTLAAAFADYPATRHTVDPDRHIERVTELQELFLTRVGLDIGKVWVADDGAAVAVWTTPESVEAGAVFAEIGPRMAELSGSRLAAQQQMEGLLAPHRPKEPAWFLATVGVSPDHQGKGLGSAVVLPGVEAAERAGVPAFLETSAPRNLPFYERLGFTVTADVEVPEGPRTWCMTRKPGA
As for B1, the “NFAT-GFP ASSAY Positive Cell lines: NALM6” value was “RAJI (+), NALM6 (+)” and the “NFAT-GFP ASSAY Positive Cell lines: RAJI” value is recorded as “RAJI (+), NALM6 (+)”.

B2: 030217-H02 (protein)
chain: MALPVTALLLPLALLLHAARPDEIVLTQSPATLSLSPGERATLSCSASSSVSYMHWYQQKPGQAPRLLIYDTSKLASGIPARFSGSGSGTDFTLTISSLEPEDVAVYYCFQGSVYPFTFGQGTKLEIKRGGGGSGGGGSGGGGSQVQLQESGPGLVKPSQTLSLTCTVSGGSISTSGMGVGWIRQHPGKGLEWIGHIWWDDDKRYNPALKSRVTISVDTSKNQFSLKLSSVTAADTAVYYCARMELWSYYFDYWGQGTLVTVSSLEGKPIPNPLLGLDSTGSGEDLKNVFPPEVAVFEPSKAEIAHTQKATLVCLATGFYPDHVELSWWVNGKEVHSGVCTDPQPLKEQPALNDSRYCLSSRLRVSATFWQNPRNHFRCQVQFYGLSENDEWTQDRAKPVTQIVSAEAWGRADCGITSASYHQGVLSATILYEILLGKATLYAVLVSALVLMAMVKRKDSRGRAKRSGSGATNFSLLKQAGDVEENPGPTSMALPVTALLLPLALLLHAARPDIQMTQSTSSLSASLGDRVTISCSASQGINNYLNWYQQKPDGTVELLIYYTSTLQSGVPSRFSGSGSGTDYSLTISNLEPEDIGTYYCQQYSKLPRTFGGGTKLEIKGGGGSGGGGSGGGGSQVQLQQSGSELMMPGASVKISCKATGYTFSNYWIEWVKQRPGHGLEWIGEILPGTGRTIYNEKFKGKATFTADISSNTVQMQLSSLTSEDSAVYYCARRDYYGNFYYAMDYWGQGTSVTVSSTREQKLISEEDGSGIQNPDPAVYQLRDSKSSDKSVCLFTDFDSQTNVSQSKDSDVYITDKCVLDMRSMDFKSNSAVAWSNKSDFACANAFNNSIIPEDTFFPSSDVPCDVKLVEKSFETDTNLNFQNLSVIGFRILLLKVAGFNLLMTLRLWSSRAKRSGSGVKQTLNFDLLKLAGDVESNPGPSRGHMTEYKPTVRLATRDDVPRAVRTLAAAFADYPATRHTVDPDRHIERVTELQELFLTRVGLDIGKVWVADDGAAVAVWTTPESVEAGAVFAEIGPRMAELSGSRLAAQQQMEGLLAPHRPKEPAWFLATVGVSPDHQGKGLGSAVVLPGVEAAERAGVPAFLETSAPRNLPFYERLGFTVTADVEVPEGPRTWCMTRKPGA
In the case of B2, the “NFAT-GFP ASSAY Positive Cell lines: NALM6” value is given as “(+)” and the “NFAT-GFP ASSAY Positive Cell lines: RAJI” value was “RAJI (2+), NALM6”.
